Results from article PMC9121386 (Journal of the American Chemical Society, 2022).

How the values were obtained:
Assay in all cases: cross-linking
[1] = biological target: uL16 (60S ribosomal subunit protein) (human (endogenous in H1299), UniProt P27635 1-214)
[2] = biological target: uL4 (60S ribosomal subunit protein) (human (endogenous in H1299), UniProt P36578 1-427)
[3] = biological target: uL2 (60S ribosomal subunit protein) (human (endogenous in H1299), UniProt P62917 1-257)
[4] = biological target: eS25 (40S ribosomal subunit protein) (human (endogenous in H1299), UniProt P62851 1-125)

- binding result [1]: binds
- binding result [2]: binds
- binding result [3]: binds
- binding result [4]: binds
B1: fragile histidine triad (Fhit), wild type (enzyme)
chain: not shown
